The supplement of paper PMC9170038

Tested on: MS2 coat protein
Test: apparent KD of MS2 coat protein; designed switch direction (-1 OFF switch, 1 ON switch): 1; higher = weaker reporter binding
Procedure, shortened: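 Apparent KD, taken as the median over clusters for each design, was obtained by curve-fitting normalised cluster fluorescence. Designed RNA switches had been transcribed on Illumina chips by stalled E. coli RNA polymerase and titrated with SNAP-549-labelled MS2 coat protein, doubling from 0.7 or 1.5 nM to 3 µM.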

[1] = input ligand: microRNA oligo, concentration not stated
[2] = Eterna round: R95, input ligand: FMN 200 uM
[3] = Eterna round: R95, input ligand: microRNA oligo, concentration not stated
[4] = Eterna round: R95, input ligand: none

Sequence	apparent KD of MS2 coat protein (input ligand: FMN 200 uM) [nM]	apparent KD of MS2 coat protein [1] [nM]	apparent KD of MS2 coat protein (input ligand: none) [nM]	apparent KD of MS2 coat protein [2] [nM]	apparent KD of MS2 coat protein [3] [nM]	apparent KD of MS2 coat protein [4] [nM]
UAGCGCUGUCGAGAGGAUAUGCGGUGAUGGACAUGAGGAUCACCCAUGUUAGCGAUAGCAUUACGGUAGAAGGCUCUACAGCUGU [salish99_ss2_r3_093] (Eterna round: R96, puzzle: Same State 2)	38.2	342	694			
GCCGGCUGGUGAGGAUAUGGCGCCUUGUUGGUGCCAGAAGGCAUGUCUAUUGACAUGAGGAUCACCCAUGUGUUGUCGUUGGCG [salish99_SSNG1_r04_612] (Eterna round: R96, puzzle: Same State NG 1)	536	108	183			
GAGUAGUUGAAAGGAUAUCGAUUGUUAUAGAAUCGAGAAGGUUCUAACAUGAGGAUCACCCAUGUAGGACUAUUCCUGUGUAUC [Parity 77 - Jieux - Same State NG 1] (Eterna round: R96, puzzle: Same State NG 1)		9.75				
AGUCCAGCAAGAGCUGGACAAAAGCAUGUACAUGAGGAUCACCCAUGUCAUGUACAAGCUUUUUGCUCGUCUUAAAA [Mat - hsa-mir-208a - Mod of JL - D3] (puzzle: Sensor for hsa-mir-208a)				456	16	729
CAGUGCUGUCGAGAGGAUAUGCGGUGAUGGACAUGAGGAUCACCCAUGUUAGCGACAGCAUCACGGCAGAAGGCUCUACCCACUG [Soteed Omei mod 45] (puzzle: Same State 2)					16.7	
GAGAGAGGGUGAGGAUAUAGAGUAAUAAUGAUACUAGAAGGCACAGACAUGAGGAUCACCCAUGUGGGAAUAAUCCAGAGAGAG [Parity 5 - Jieux - Same State NG 1] (Eterna round: R96, puzzle: Same State NG 1)	300	259	401			
UAUGAACAUGAGGAUCACCCAUGUGGAAAGGACACAGGAUAUCAUCUCGCACGUGCGAUAUGAGAAGGGUGAUGGU [Quedorinri] (puzzle: Same State 1)					96.3	
UGUACCUUCACAGGAUAUCAUGCGAAAAUUGCGUGAGAAGGGUGAAUACUGUCUUACUAAGAGCACAUGAGGAUCACCCAUGUA [SameState NG1 #58] (Eterna round: R96, puzzle: Same State NG 1)	269	198	296			
GGUCCAGCCUGAGCUGGACAAAAGCAUGUACAUGAGGAUCACCCAUGUCAUGUACAAGCUUUUUGCUCGUCUAAAGA [Mat - hsa-mir-208a - 91] (puzzle: Sensor for hsa-mir-208a)				517	17.7	705
AAUGCACAUGAGGAUCACCCAUGUAAGACAAAGACAGGAUAUGGGCCGCAUGGCUCUGGCCCAGAAGGGUCAGUCG [Biorinin] (puzzle: Same State 1)					19.8	
UUGUUUAGAAAUUAACAUGAGGAUCACCCAUGUAUUGGAUCAGAGGAUAUGCAUGUUUGAUUGUAGCAGAAGGCUGAUUGUUGA [JR_SSNG3_Sub029] (Eterna round: R96, puzzle: Same State NG 3)		37.3				
GCUGGAAAUCACAUGAGGAUCACCCAUGUUCCGGAAACGGCACAGGAUAUCUGUCCGAAAAGGUCAGAGAAGGGUGAAACCAGC [Fiskers NG3ss - 85] (Eterna round: R96, puzzle: Same State NG 3)	303	56.1	105			
ACUUAGUACAAUUUAGAUCUACAUGAGGAUCACCCAUGUACUGAGGAUAUCAGCUCGAAUAGAGCUGAGAAGGCAGUAGUACUA [SSNG3/9-A1] (Eterna round: R96, puzzle: Same State NG 3)	47.4	42.6	50.2			
UGAACCUUCACAGGAUAUCAUGCGAAAAUUGCGUGAGAAGGGUGGAUGUGGUGUUCAAAGAUGCACAUGAGGAUCACCCAUGUA [SameState NG1 #48] (Eterna round: R96, puzzle: Same State NG 1)	106	166	203			
UGUAUACAUGAGGAUCACCCAUGUCAACGUAGUCGAGGAUAUGGGCAGCCGUGAGGCGUACUAGAAGGCGAAGAGG [JL-ss1-3.06 ViennaUCT mod] (puzzle: Same State 1)					116	
AACCUACAUGAGGAUCACCCAUGUGUCUAAGGCACAGGAUAUCGACAGGCAAGACGCCUGCGAGAAGGGUGACCUA [Erononer] (puzzle: Same State 1)				58.7	34.4	262

Sequence	apparent KD of MS2 coat protein (input ligand: FMN 200 uM) [nM]	apparent KD of MS2 coat protein [1] [nM]	apparent KD of MS2 coat protein (input ligand: none) [nM]	apparent KD of MS2 coat protein [2] [nM]	apparent KD of MS2 coat protein [3] [nM]	apparent KD of MS2 coat protein [4] [nM]
UCUUGGUUUUUGCUCGUUUUUUGUGUUGAACAUGAGGAUCACCCAUGUAUUAUACGGUCCGGUUUAGUAGUGGUCCG [JMF 79] (puzzle: Sensor for hsa-mir-208a)				28.2	16	31.1
GGAGCCAAGGCAGGAUAUUCAACAUGAGGAUCACCCAUGUGGGUAAUAAAGGCCAGAAGGCCUUGGGAGAAGGGCCAUGGCUCG [Xeonanis - 13 mod13] (Eterna round: R96, puzzle: Same State NG 2)	16.8	9.17	17.7			
GCUAGAAUCAAAGCCAACAUGAGGAUCACCCAUGUAUGUUGGUAGGAUAUCGUUUGCUUUGCAAACGAGAAGGACCAAACUAGC [SameState NG3 #1] (Eterna round: R96, puzzle: Same State NG 3)	30.2	75.3	87.1			
GAGGGACAGACCAACAUGAGGAUCACCCAUGUCCUCGCAGGUCAGGAUAUUAUUAGGAUCACCAGUGAGAAGGGACGGUGAACC (Eterna round: R96, puzzle: Same State NG 3)	755	398	564			
ACUUAGUACAAUUUAGAUCUACAUGAGGAUCACCCAUGUACUGAGGAUAUCAGCUCGUUUAGAGCUGAGAAGGCAGAAGUACUU [SSNG3/8-A3] (Eterna round: R96, puzzle: Same State NG 3)	54.7	234	207			
GGAUGAUUGACAGGAUAUCAUUUGUAAAUUGGUUGAGAAGGGUCGAUUACUUACACGACCUGUUACAUGAGGAUCACCCAUGUU [SameState NG1 #3] (Eterna round: R96, puzzle: Same State NG 1)	34.9	20.5	31			
UCAAGCGUUUGGCUCGUUUUAUGUGUUGAACAUGAGGAUCACCCAUGUAUUGUACGAUCCAGUUAGAUGGUAUUUUG [JR_SHM208A_Sub040] (puzzle: Sensor for hsa-mir-208a)				46.9	104	67.6
GACAAUCUAUCUGAGGAUAUCAUGAAGAAAACAUGAGGAUCACCCAUGUGCAGGAGAACUGCAAAUGAGAAGGCAGAUAGAUUGG [Mat - Same State 2 - Mod - D2] (puzzle: Same State 2)				8.71	13.1	20.4
GGUAGGUUACUACCAAUCUACAUGAGGAUCACCCAUGUGUAGGAGGAUAUGGUACCUAUUUGGUACCAGAAGGCCUGAUUAAUU [Fiskers NG3ss - 8] (Eterna round: R96, puzzle: Same State NG 3)	115	80.4	247			
ACAUGAGACCUAGGAUAUCUUGUACCUACAUGUGACAUGAGGAUCACCCAUGUGGUAAGUAUGAUAGAGAAGGAGGAGAUAUGU [Equivalance 55 - Jieux - Same State NG 2] (Eterna round: R96, puzzle: Same State NG 2)	15.6	39.8	51.9			
GUUACAUGAGGAUCACCCAUGUAUGUGUGGGAGUAAGUGUCUUAGGAUAUCUAUGAUUUAAUUUCAGAGAAGGAAGAUUGUUGU [JMF's solution 88] (Eterna round: R96, puzzle: Same State NG 3)	119	68	109			
UCUUGGUUUUUGCUCGUUUUUUGUGUUGAACAUGAGGAUCACCCAUGUAUUGUACAGUCCAGUUUAAUAAUGGUCCG [JMF 55] (puzzle: Sensor for hsa-mir-208a)				36.9	25.6	38.1
AUUUUUCAUGCAGGAUAUGAUUAACAUGAGGAUCACCCAUGUGGUGUUGUGAGUAAGGAGAGUGAUCAGAAGGGCAUUUUUUUU [JMF's solution 94] (Eterna round: R96, puzzle: Same State NG 2)	837	342	503			
ACAUGAGACCUAGGAUAUAUUGUACCUACAUGUGACAUGAGGAUCACCCAUGUGGUAAGUAUGACAUAGAAGGAGGAGAUAUGU [Equivalance 93 - Jieux - Same State NG 2] (Eterna round: R96, puzzle: Same State NG 2)	31.5	27.2	54.7			
AUUAUUUCUGCAGGAUAUGAUUAACAUGAGGAUCACCCAUGUGGUGUUGUGAGUAAGGAGAGUGAUCAGAAGGGCAUUUUUUUU [JMF's solution 62] (Eterna round: R96, puzzle: Same State NG 2)	630	211	313			
AGCCGAAGCGCAGGAUAUACAUGCACACAUGAGGAUCACCCAUGUGGCAACACGUGGUAGUGAUUGUAGAAGGGUGCUCGGCGC [Omei SS(NG)2 Cv16] (Eterna round: R96, puzzle: Same State NG 2)	60.1	34.4	51			
